Experimental findings from patent US20170073382 (Nomadogen Biotechnologies Inc., published 2017) are described below.

For this series, the target named is T1, synthetic TAL effector (RVG-LAMP-2B-NLS-TALE) (Artificial Sequence, UniProt P14727 SEQ:1-766).
T1 chain: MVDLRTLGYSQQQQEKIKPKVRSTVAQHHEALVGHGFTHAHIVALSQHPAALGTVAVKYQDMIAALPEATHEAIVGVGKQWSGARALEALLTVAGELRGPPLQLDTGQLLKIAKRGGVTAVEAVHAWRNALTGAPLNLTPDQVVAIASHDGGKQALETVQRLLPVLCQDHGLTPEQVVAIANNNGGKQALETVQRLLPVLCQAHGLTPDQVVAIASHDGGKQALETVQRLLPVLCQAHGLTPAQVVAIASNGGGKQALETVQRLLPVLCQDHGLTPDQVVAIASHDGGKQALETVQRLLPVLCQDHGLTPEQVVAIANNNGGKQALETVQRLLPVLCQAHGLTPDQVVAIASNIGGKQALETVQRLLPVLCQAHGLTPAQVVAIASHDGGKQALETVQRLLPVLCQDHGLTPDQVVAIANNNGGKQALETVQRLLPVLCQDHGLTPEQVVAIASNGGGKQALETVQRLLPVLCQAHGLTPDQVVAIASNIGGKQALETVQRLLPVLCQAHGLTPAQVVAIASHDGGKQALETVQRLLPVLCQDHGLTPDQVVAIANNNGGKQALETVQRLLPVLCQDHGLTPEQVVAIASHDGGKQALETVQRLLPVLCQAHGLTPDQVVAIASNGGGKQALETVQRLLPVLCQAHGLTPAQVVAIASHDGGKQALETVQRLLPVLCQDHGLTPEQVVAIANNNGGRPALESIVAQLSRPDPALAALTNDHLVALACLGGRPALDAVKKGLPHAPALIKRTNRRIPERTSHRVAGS
Briefly: cell_activity. As to conditions: tags: fusion to C-terminus of RVG-LAMP-2B-NLS, expressed from pcDNA3.0 in HEK-293.

B1: gfaABC1D-NeuroD1 plasmid with TAL effector binding site (dsDNA)
DNA 1: TCGCTCGACGTACGCTCG
DNA 2: CGAGCGTACGTCGAGCGA
Consider B1, for which the binding signal was found to be 3 fold.
